Experimental findings from article doi:10.1101/2024.10.21.619395 are described below.

This assay deals with G protein-coupled bile acid receptor 1 (GPBAR1), full length, with N-terminal FLAG and BRIL (human) (UniProt Q8TDU6). Nature of the assay: mass photometry.

In general, stoichiometry N refers to a count of units in the complex or per binding partner.

Sequence of UniProt Q8TDU6 (Q8TDU6 whole entry): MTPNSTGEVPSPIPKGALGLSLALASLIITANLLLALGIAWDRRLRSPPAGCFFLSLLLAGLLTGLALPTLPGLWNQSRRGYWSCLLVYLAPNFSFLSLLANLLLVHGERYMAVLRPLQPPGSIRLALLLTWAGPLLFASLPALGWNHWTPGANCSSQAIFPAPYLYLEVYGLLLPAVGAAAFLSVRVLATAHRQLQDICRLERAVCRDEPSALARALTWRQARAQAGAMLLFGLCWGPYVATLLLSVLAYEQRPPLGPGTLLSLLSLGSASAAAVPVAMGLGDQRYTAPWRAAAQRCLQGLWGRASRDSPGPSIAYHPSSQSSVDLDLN

With “Heterotrimeric Gs (Gαs, Gβ1, Gγ2) (from UniProt P63096 1-18; P63092 16-394; P62873 2-340; P59768 1-71) (complex)”, the stoichiometry N was found to be 1.
